{"source": "FireProtDB", "conditions": "whole UniProt chain shown", "key": {"[1]": {"conditions": "Aliivibrio salmonicida (strain LFI1238), pH 8, Thermal, DSC, HEPES, MgCl2 NaCl 5 mM 0.175, reversible: no"}, "[2]": {"conditions": "Aliivibrio salmonicida (strain LFI1238), pH 8, Thermal, DSC, HEPES, MgCl2 NaCl 5 mM 1, reversible: no"}, "[3]": {"conditions": "Aliivibrio salmonicida (strain LFI1238), pH 8, Thermal, DSC, Tris-HCl 50mM, NaCl 0.175 M"}, "[4]": {"conditions": "Aliivibrio salmonicida (strain LFI1238), pH 8, Thermal, DSC, Tris-HCl 50mM, NaCl 1 M"}, "[5]": {"conditions": "Aquifex aeolicus (strain VF5), pH 7, 20 °C, GdnHCl, Fluorescence, Sodium phosphate sodium chloride 25 mM 100 mM"}, "[6]": {"conditions": "Bacillus amyloliquefaciens, pH 7.5, Thermal, fluorescence, Pipes 10 mM, transition: 2"}, "[7]": {"conditions": "Bacillus amyloliquefaciens, pH 6, 25 °C, GdnHCl, Fluorescence, MES 50 mM, CaCl2 5 mM, reversible: no"}, "[8]": {"conditions": "Bacillus amyloliquefaciens, pH 7, 25 °C, GdnHCl, CD, phosphate 20 mM"}, "[9]": {"conditions": "Bacillus amyloliquefaciens, pH 8, 25 °C, Urea, Fluorescence, Tris-HCl 50 mM, reversible: yes"}, "[10]": {"conditions": "Bacillus amyloliquefaciens, pH 8, Thermal, CD, Sodium phosphate 2 mM, reversible: yes"}, "[11]": {"conditions": "Bacillus amyloliquefaciens, pH 8, Thermal, DSC, Sodium phosphate 10 mM, reversible: yes"}, "[12]": {"conditions": "Bacillus amyloliquefaciens, pH 9.5, Thermal, DSC, Sodium phosphate 10 mM, reversible: yes"}}, "note": "Several values for one entry are separate records, joined by “and”; a condition that tells them apart may be missing. Identical values can stand only once."}
{"protein": "wild type, Q2XSL7 (protein) MKLIRLVISLIAVSFTVNVMAAPPSSFSKAKKEAVKIYLDYPTSFYCGCDITWKNKKKGIPELESCGYQVRKQEKRASRIEWEHVVPAWQFGHQRQCWQKGGRKNCTRNDKQFKSMEADLHNLVPAIGEVNGDRSNFRFSQWNGSKGAFYGQCAFKVDFKGRVAEPPAQSRGAIARTYLYMNNEYKFNLSKAQRQLMEAWNKQYPVSTWECTRDERIAKIQGNHNQFVYKACTK", "values": [{"measurement": "Tm", "setting": "[1]", "value": 41.8, "unit": "°C"}, {"measurement": "unfolding enthalpy (calorimetric)", "setting": "[1]", "value": 64, "unit": "kcal/mol"}, {"measurement": "Tm", "setting": "[2]", "value": 51.9, "unit": "°C"}, {"measurement": "unfolding enthalpy (calorimetric)", "setting": "[2]", "value": 88.7, "unit": "kcal/mol"}, {"measurement": "Tm", "setting": "[3]", "value": 41.8, "unit": "°C"}, {"measurement": "unfolding enthalpy (calorimetric)", "setting": "[3]", "value": 64, "unit": "kcal/mol"}, {"measurement": "Tm", "setting": "[4]", "value": 51.9, "unit": "°C"}, {"measurement": "unfolding enthalpy (calorimetric)", "setting": "[4]", "value": 88.6, "unit": "kcal/mol"}]}
{"protein": "wild type, O66926 (protein) MKKFLIPFLTFLGFTFSSELIPCKVVRVVDGDTFRCVPEGKSRFIKVRLMGIDTLETNNMKKGMGQAKWFYGGIRTVKEFGKKAKEFSKRLIDKKVVYLELPVRKMDNNGRYLAYVWLDEYRNKMLNLLLVKEGLAFVFIIPPQVKYLKELGEAQEEAYKDRRGFWKYFKGE", "values": [{"measurement": "denaturant m value", "setting": "[5]", "value": 1.02, "unit": "kcal/mol/M"}, {"measurement": "denaturant midpoint (higher = more stable)", "setting": "[5]", "value": 0.42, "unit": "M"}, {"measurement": "unfolding free energy", "setting": "[5]", "value": 2.8, "unit": "kcal/mol"}]}
{"protein": "Subtilisin BPN' wild type, P00782 (protein) MRGKKVWISLLFALALIFTMAFGSTSSAQAAGKSNGEKKYIVGFKQTMSTMSAAKKKDVISEKGGKVQKQFKYVDAASATLNEKAVKELKKDPSVAYVEEDHVAHAYAQSVPYGVSQIKAPALHSQGYTGSNVKVAVIDSGIDSSHPDLKVAGGASMVPSETNPFQDNNSHGTHVAGTVAALNNSIGVLGVAPSASLYAVKVLGADGSGQYSWIINGIEWAIANNMDVINMSLGGPSGSAALKAAVDKAVASGVVVVAAAGNEGTSGSSSTVGYPGKYPSVIAVGAVDSSNQRASFSSVGPELDVMAPGVSIQSTLPGNKYGAYNGTSMASPHVAGAAALILSKHPNWTNTQVRSSLENTTTKLGDSFYYGKGLINVQAAAQ", "values": [{"measurement": "unfolding free energy", "setting": "Bacillus amyloliquefaciens, pH 5, 20 °C, Thermal, DSC, Sodium acetate 100 mM, reversible: yes", "value": 2.1, "unit": "kcal/mol"}, {"measurement": "Tm", "setting": "Bacillus amyloliquefaciens, pH 7, Thermal, CD, KPO4 100 mM", "value": 65, "unit": "°C"}, {"measurement": "Tm", "setting": "[6]", "value": "53.9 °C and 56.8 °C"}, {"measurement": "unfolding enthalpy (calorimetric)", "setting": "[6]", "value": "55.8 kcal/mol and 56.7 kcal/mol"}, {"measurement": "Tm", "setting": "Bacillus amyloliquefaciens, pH 8, Thermal, DSC, Tris-HCl 50 mM, CaCl2 10 mM, reversible: no", "value": 78.3, "unit": "°C"}, {"measurement": "Tm", "setting": "Bacillus amyloliquefaciens, pH 8, Thermal, DSC, Tris-HCl 50 mM, KCl 50 mM", "value": 58.9, "unit": "°C"}]}
{"protein": "Beta-glucanase wild type, P07980 (protein) MKRVLLILVTGLFMSLCGITSSVSAQTGGSFFEPFNSYNSGLWQKADGYSNGDMFNCTWRANNVSMTSLGEMRLALTSPSYNKFDCGENRSVQTYGYGLYEVRMKPAKNTGIVSSFFTYTGPTEGTPWDEIDIEFLGKDTTKVQFNYYTNGAGNHEKFADLGFDAANAYHTYAFDWQPNSIKWYVDGQLKHTATTQIPAAPGKIMMNLWNGTGVDDWLGSYNGVNPIYAHYDWMRYRKK", "values": [{"measurement": "denaturant midpoint (higher = more stable)", "setting": "[7]", "value": "2.73 M and 2.84 M"}, {"measurement": "unfolding free energy", "setting": "[7]", "value": "12.9 kcal/mol and 4.97 kcal/mol"}]}
{"protein": "Barstar wild type, P11540 (protein) MKKAVINGEQIRSISDLHQTLKKELALPEYYGENLDALWDCLTGWVEYPLVLEWRQFEQSKQLTENGAESVLQVFREAKAEGCDITIILS", "values": [{"measurement": "denaturant midpoint (higher = more stable)", "setting": "[8]", "value": 1.92, "unit": "M"}, {"measurement": "unfolding free energy", "setting": "[8]", "value": 4.6, "unit": "kcal/mol"}, {"measurement": "unfolding free energy", "setting": "Bacillus amyloliquefaciens, pH 8, 10 °C, Urea, CD, Tris Cl 50 mM, KCl 100 mM", "value": 3, "unit": "kcal/mol"}, {"measurement": "denaturant m value", "setting": "[9]", "value": 1.25, "unit": "kcal/mol/M"}, {"measurement": "denaturant midpoint (higher = more stable)", "setting": "[9]", "value": 3.87, "unit": "M"}, {"measurement": "unfolding free energy", "setting": "[9]", "value": 4.84, "unit": "kcal/mol"}, {"measurement": "Tm", "setting": "[10]", "value": 70, "unit": "°C"}, {"measurement": "heat capacity change of unfolding", "setting": "[10]", "value": 1.49, "unit": "kcal/mol/K"}, {"measurement": "unfolding enthalpy (van 't Hoff)", "setting": "[10]", "value": 69.7, "unit": "kcal/mol"}, {"measurement": "Tm", "setting": "[11]", "value": 69.7, "unit": "°C"}, {"measurement": "heat capacity change of unfolding", "setting": "[11]", "value": 1.41, "unit": "kcal/mol/K"}, {"measurement": "unfolding enthalpy (calorimetric)", "setting": "[11]", "value": 42.6, "unit": "kcal/mol"}, {"measurement": "unfolding enthalpy (van 't Hoff)", "setting": "[11]", "value": 60, "unit": "kcal/mol"}, {"measurement": "Tm", "setting": "[12]", "value": 68.7, "unit": "°C"}, {"measurement": "heat capacity change of unfolding", "setting": "[12]", "value": 1.36, "unit": "kcal/mol/K"}, {"measurement": "unfolding enthalpy (calorimetric)", "setting": "[12]", "value": 41.2, "unit": "kcal/mol"}, {"measurement": "unfolding enthalpy (van 't Hoff)", "setting": "[12]", "value": 56.1, "unit": "kcal/mol"}]}
{"protein": "Cytidine deaminase wild type, Q9R2S1 (protein) MEIEQLIVEAKKARELAYVPYSKFPVGAALLTKGGSVYRGCNIENAAYSVCNCAERTALFKAYSEGEKEFTALAVIADTPRPVPPCGACRQVIAELCHGDMKVILANLKGDVKVMTVSELLPEAFSAEDLHA", "values": [{"measurement": "unfolding free energy", "setting": "Bacillus caldolyticus, pH 7, 25 °C, GdnHCl, CD, potassium phosphate 20 mM, reversible: no", "value": 4.3, "unit": "kcal/mol"}]}
